From IntAct's records for PubMed 22405203 come the findings set out here.

B1: Hypoxia-inducible factor prolyl hydroxylase (Caenorhabditis elegans), G5EBV0 (parent)
chain: MSSAPNDDCEIDKGTPSTASLFTTLMLSQPSSSTAVLQCTYCGSSCTSSQLQTCLFCGTVAYCSKEHQQLDWLTHKMICKSLQTSGMVPSNLMPQAAPAVMAPIPPTVSFDDPALTTSLLLSLQNNPILNQTISNFPPTFSITSKTEPEPSIPIQIPQRISSTSTVPFSSEGSAFKPYRNTHVFNSISSESMSSMCTSHEASLEHMSSASLAMFPTSSTAQSDISRLAQVLSLAGDSPASLALVTTSVPSTASTATIPPPATTTSSATSSGKSETITVGKEKIIQTDDPDIQIIETEGGSKPTVSRTRKRPTPSNSADPKINYKDHNKNVVYSTTLQEHQKHLQNRGLALSIHQAMVLRLRYIAEHVIRSLNEFGWAVVDNFLGSDHYKFTAKEIERLYERGLFSPGQLMEAKHKDEFHIKDIRSDHIYWYDGYDGRAKDAATVRLLISMIDSVIQHFKKRIDHDIGGRSRAMLAIYPGNGTRYVKHVDNPVKDGRCITTIYYCNENWDMATDGGTLRLYPETSMTPMDIDPRADRLVFFWSDRRNPHEVMPVFRHRFAITIWYMDKSERDKALAKGKESDAACASKKENDPTSSSLNSLIGSLLRPRKNPSTHDLSKLDLRLFPSTSSDPALVSAADEDRVDISADFQSTSSLAHPESTDSGVSLSTFNVAHNHMERTTSLQSISDHFRSERSHERRSSTSSDQDLDEGLPPPPSTNPEYYI
partner: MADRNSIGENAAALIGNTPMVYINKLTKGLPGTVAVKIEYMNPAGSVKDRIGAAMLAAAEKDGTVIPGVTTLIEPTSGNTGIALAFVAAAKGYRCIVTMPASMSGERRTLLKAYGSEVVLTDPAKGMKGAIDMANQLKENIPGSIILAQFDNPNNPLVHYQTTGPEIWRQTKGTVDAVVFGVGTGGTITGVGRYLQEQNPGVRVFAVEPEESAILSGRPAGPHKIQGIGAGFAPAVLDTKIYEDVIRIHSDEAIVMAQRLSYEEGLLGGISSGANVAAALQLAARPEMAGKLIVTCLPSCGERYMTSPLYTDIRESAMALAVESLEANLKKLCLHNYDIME

One experiment covers variants of B1. The note with it: with cysk1_caeel cysl-1, Q93244.
E720K: the “effect of a mutation on the interaction” value is given as “disrupting interaction strength”.

Variants of B1 are the subject of another experiment. Conditions: with cysk1_caeel cysl-1, Q93244. This is another data set of the same source.
For E720K, the “effect of a mutation on the interaction” value is given as “decreasing interaction strength”.
On the same count and under the same terms, in the case of I723A it was “decreasing interaction strength”.
